Results from patent US12527846B2, “Immunodominant proteins and fragments in multiple sclerosis” (UNIVERSITÄT ZÜRICH, priority 2018, dated 2026).

Assays:
[1] = test system: CSF-infiltrating CD4+ T cells; assay: Recognition of GDP-L-fucose synthase peptides by PHA-expanded CSF-infiltrating CD4+ T cells from 31 CIS/MS patients; format: cell-based, human; settings: three-cluster k-means on patient scores
Description: In order to find out if specific recognition of GDP-L-fucose synthase occurs in CSF-infiltrating CD4+ T cells in patients with different forms of MS (the majority CIS and RRMS), a new protocol was developed to expand fresh CSF-infiltrating CD4+ T cells to high numbers in a single round to minimize variations in the original T cell repertoire. Resting PHA-expanded CSF-infiltrating CD4+ T cells, T cells that are also derived from the CNS compartment, from 31 CIS/MS patients were tested in quadruplicate with the 62 overlapping GDP-L-fucose synthase peptides presented by autologous irradiated PBMCs, as well as with the seven myelin peptides, CEF peptide pool and control beads. All stimulatory indices (Sls; except control beads) were pooled and SI values less than one were treated as having unit value. Cluster k-means analysis was performed to determine the optimal cut-off to differentiate responsive SI values from nonresponsive in this patient population. […] Subsequently, for each patient, all peptides having a median SI (of the quadruplicate wells) greater than 1.455 were identified as positive responses.
Next, patient scores were constructed by calculating the sum of each responsive peptide median SI, weighted by the number of total patients that responded to that peptide. […]
Proliferation was measured 72 h after stimulation by 3H-thymidine (Hartmann Analytic, Braunschweig, Germany) incorporation in a scintillation counter (Wallac 1450, PerkinElmer, Rodgau-Jurgesheim, Germany). The stimulatory index (SI) was calculated as follows: SI=Median (replicates cpm peptide)/Median (replicates cpm without peptide). Proliferation was also measured using a Click-iT™ EdU Flow Cytometry Assay Kit (APC, Molecular Probes, Invitrogen) following manufacturer's instructions. Cells were stained with the following antibodies anti-CD3 (PE-Cy-7, e-Bioscience, San Diego, CA) and anti-TRBV-21 (FITC, Beckman Coulter, Brea, CA) and analyzed by flow cytometry.

[2] = test system: CD45RA-depleted PBMCs of natalizumab-treated MS patients; assay: RASGRP2 reactivity of peripheral blood-derived memory T cells (thymidine incorporation); format: cell-based, human; settings: n=8 natalizumab-treated MS patients; peptide pools 10 μM or whole protein 0.3 μg/ml, day 7
Description: In order to test reactivity to RASGRP2 in peripheral blood-derived memory T cells, cryopreserved PBMCs (1×10^8 cells) of natalizumab-treated MS patients (NAT; n=8) were thawed and afterwards depleted for CD45RA-expressing cells using magnetic cell sorting (Miltenyi). 2×10^8 CD45RA-depleted PBMCs were seeded per well (10-15 replicate wells per condition) in X-Vivo medium and were either treated with vehicle (DMSO), with CD2/CD3/CD28 beads or pulsed with RASGRP2 peptide pools (final concentration of pool 10 μM) or whole purified RASGRP2 protein (Origene; 0.3 μg/ml). The 15mer-overlapping peptides covering the whole RASGRP2 protein (SEQ ID NO:s 38-98) were organized in 9 peptide pools with 7 peptides per pool covering the sequence of RASGRP2 from N- (pool 1) to C-terminus (pool 9). Thymidine incorporation assay was used to measure proliferation responses to RASGRP2. At day 7 the cells were pulsed with 1 μCi of methyl-3H-thymidine per well (Hartmann Analytic) and harvested after 15 h on a membrane (Tomtec). Incorporation was measured by p-scintillation counting (Wallac 1450, PerkinElmer). The results are shown as dots (mean±SEM). Stimulatory index (SI) was calculated as ratio of peptide or protein stimulation vs. vehicle control. SI values>2 were considered as positive (FIG. 10).

Molecule	patients characterized as high responders [1]	patients characterized as moderate responders [1]	patients characterized as nonresponders [1]	donors responding (SI values>2 positive) [2]
GDP L-fucose synthase (protein, listed as Homo sapiens, whole protein 1-321, GenBank AAH93061.1 or UniProtKB/Swiss-Prot Q13630) MGEPQGSMRILVTGGSGLVGKAIQKVVADGAGLPGEDWVFVSSKDADLTDTAQTRALFEKVQPTHVIHLAAMVGGLFRNIKYNLDFWRKNVHMNDNVLHSAFEVGARKVVSCLSTCIFPDKTTYPIDETMIHNGPPHNSNFGYSYAKRMIDVQNRAYFQQYGCTFTAVIPTNVFGPHDNFNIEDGHVLPGLIHKVHLAKSSGSALTVWGTGNPRRQFIYSLDLAQLFIWVLREYNEVEPIILSVGEEDEVSIKEAAEAVVEAMDFHGEVTFDTTKSDGQFKKTASNSKLRTYLPDFRFTPFKQAVKETCAWFTDNYEQARK	19.35%	19.35%	61.3%	
RASGRP2: RASGRP2 peptide pools (15mer-overlapping peptides, SEQ ID NOs 38-98, 9 pools) or whole purified RASGRP2 protein (Origene) (protein, listed as Homo sapiens) AAAAARPAGGSARRWGRPGRCGLLAAGPKRVRSEPGGRLPERSLGPAHPAPAAMAGTLDLDKGCTVEELLRGCIEAFDDSGKVRDPQLVRMFLMMHPWYIPSSQLAAKLLHIYQQSRKDNSNSLQVKTCHLVRYWISAFPAEFDLNPELAEQIKELKALLDQEGNRRHSSLIDIDSVPTYKWKRQVTQRNPVGQKKRKMSLLFDHLEPMELAEHLTYLEYRSFCKILFQDYHSFVTHGCTVDNPVLERFISLFNSVSQWVQLMILSKPTAPQRALVITHFVHVAEKLLQLQNFNTLMAVVGGLSHSSISRLKETHSHVSPETIKLWEGLTELVTATGNYGNYRRRLAACVGFRFPILGVHLKDLVALQLALPDWLDPARTRLNGAKMKQLFSILEELAMVTSLRPPVQANPDLLSLLTVSLDQYQTEDELYQLSLQREPRSKSSPTSPTSCTPPPRPPVLEEWTSAAKPKLDQALVVEHIEKMVESVFRNFDVDGDGHISQEEFQIIRGNFPYLSAFGDLDQNQDGCISREEMVSYFLRSSSVLGGRMGFVHNFQESNSLRPVACRHCKALILGIYKQGLKCRACGVNCHKQCKDRLSVECRRRAQSVSLEGSAPSPSPMHSHHHRAFSFSLPRPGRRGSRPPEIREEEVQTVEDGVFDIHL				All 8 donors responded
